# Measurements taken from patent publication US20110052582A1 (Hoffmann-La Roche, published 2011).
# T1: Human CDCP1 (CUB domain containing protein 1) on DU-145 cells (human, UniProt Q9H5V8 30-836)
# T1 sequence: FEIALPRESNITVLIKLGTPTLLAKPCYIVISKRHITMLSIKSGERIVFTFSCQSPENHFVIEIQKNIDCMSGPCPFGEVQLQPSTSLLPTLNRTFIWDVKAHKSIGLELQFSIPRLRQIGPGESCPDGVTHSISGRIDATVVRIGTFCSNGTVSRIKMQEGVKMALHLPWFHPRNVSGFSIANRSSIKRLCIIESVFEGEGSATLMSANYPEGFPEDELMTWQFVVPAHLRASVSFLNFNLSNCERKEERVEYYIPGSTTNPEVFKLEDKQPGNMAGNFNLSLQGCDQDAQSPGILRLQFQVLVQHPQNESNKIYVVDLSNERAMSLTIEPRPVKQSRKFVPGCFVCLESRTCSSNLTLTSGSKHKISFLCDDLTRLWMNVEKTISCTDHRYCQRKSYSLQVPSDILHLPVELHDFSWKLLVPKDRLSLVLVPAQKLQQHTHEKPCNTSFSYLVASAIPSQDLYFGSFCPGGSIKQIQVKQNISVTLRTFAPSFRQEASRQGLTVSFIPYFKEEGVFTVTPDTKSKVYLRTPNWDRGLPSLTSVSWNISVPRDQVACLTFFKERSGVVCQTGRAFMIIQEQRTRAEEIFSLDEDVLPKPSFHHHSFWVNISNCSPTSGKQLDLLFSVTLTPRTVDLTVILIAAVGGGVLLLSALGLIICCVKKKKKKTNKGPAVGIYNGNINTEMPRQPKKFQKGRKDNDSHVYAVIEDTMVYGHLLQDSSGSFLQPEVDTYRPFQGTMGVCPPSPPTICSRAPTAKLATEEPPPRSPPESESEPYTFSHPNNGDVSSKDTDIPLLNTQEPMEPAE
# T2: Soluble CDCP1 extracellular domain (CDCP1-ECD) (SEQ ID NO:30) fused to Streptavidin Binding Protein (SBP) (human, UniProt Q9H5V8 30-663)
# T2 construct: also called SBP-CDCP1-ECD
# T2 sequence: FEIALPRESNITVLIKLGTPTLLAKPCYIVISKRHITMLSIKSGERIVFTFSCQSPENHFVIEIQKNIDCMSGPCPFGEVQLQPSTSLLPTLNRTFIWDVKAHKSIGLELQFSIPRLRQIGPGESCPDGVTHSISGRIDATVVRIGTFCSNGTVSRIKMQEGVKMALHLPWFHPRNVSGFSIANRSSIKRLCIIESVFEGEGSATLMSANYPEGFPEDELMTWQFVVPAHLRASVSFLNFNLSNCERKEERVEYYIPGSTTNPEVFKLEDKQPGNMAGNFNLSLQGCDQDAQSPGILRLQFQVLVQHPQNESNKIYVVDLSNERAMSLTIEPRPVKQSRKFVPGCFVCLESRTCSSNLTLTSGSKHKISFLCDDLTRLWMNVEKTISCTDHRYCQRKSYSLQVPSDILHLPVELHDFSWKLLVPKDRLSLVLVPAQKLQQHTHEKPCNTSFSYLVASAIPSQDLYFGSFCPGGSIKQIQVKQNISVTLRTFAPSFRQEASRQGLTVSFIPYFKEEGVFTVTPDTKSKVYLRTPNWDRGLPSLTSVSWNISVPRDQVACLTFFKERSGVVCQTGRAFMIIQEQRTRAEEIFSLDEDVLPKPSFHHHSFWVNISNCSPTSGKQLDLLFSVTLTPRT
# T3: extracellular-domain-(ECD)-comprising fragment of human CDCP1 of SEQ ID NO: 30 (human, UniProt Q9H5V8 30-663)
# T3 construct: also called CDCP1 ECD; CDCP1-ECD
# T3 sequence: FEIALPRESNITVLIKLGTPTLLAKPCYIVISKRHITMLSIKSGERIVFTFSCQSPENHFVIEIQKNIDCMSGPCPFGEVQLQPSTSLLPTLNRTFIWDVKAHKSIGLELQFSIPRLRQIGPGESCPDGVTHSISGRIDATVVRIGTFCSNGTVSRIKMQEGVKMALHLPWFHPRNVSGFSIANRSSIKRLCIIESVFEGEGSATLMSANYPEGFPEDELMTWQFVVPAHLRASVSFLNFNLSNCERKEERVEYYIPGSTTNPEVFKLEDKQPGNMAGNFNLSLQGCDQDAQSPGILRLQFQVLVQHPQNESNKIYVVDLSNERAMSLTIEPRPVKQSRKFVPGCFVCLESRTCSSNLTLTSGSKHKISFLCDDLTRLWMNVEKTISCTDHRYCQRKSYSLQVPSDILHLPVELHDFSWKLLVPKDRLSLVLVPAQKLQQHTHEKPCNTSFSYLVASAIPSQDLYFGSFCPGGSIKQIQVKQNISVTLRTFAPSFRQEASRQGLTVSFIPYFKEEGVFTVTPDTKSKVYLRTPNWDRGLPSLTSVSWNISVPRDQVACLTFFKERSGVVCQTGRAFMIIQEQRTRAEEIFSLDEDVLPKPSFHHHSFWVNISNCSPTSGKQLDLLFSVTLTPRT
# Key:
# [1] = biological target: T1, Human CDCP1 (CUB domain containing …); experiment: cell-based or functional assay
# [2] = biological target: T2, Soluble CDCP1 extracellular domain …; experiment: ELISA on captured SBP-CDCP1-ECD, ratio relative to chimeric CUB4 (chHC4)
# Summary of the method: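 Streptavidin plates coated overnight at 2–8° C with SBP-CDCP1-ECD HEK293 supernatant (1:15–1:40). Antibodies, undiluted or 12-step dilution, bound 90 min at room temperature; HRP anti-human IgG 1 h, ABTS read at 405/492 nm, signal expressed relative to chimeric chHC4 reference.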
# [3] = biological target: T3, extracellular-domain-(ECD)-comprising …; experiment: SPR (Biacore T100), antibody captured, CDCP1 ECD as analyte, 25 C, Langmuir 1:1
# Method: After conjugation, different anti-CDCP1 antibodies were injected at 25° C. at a flow rate of 5 μL/min, followed by a dilution series (0 nM to 1000 nM) of CDCP1 ECD at 30 μL/min. As running buffer for the binding experiment PBS/0.1% BSA was used. The chip was then regenerated with a 60s pulse of 10 mM glycine-HCl, pH 2.0 solution.
# Calculation of thermodynamic parameters (KD, binding constant) and kinetic parameters (kₒₙ rate, koff rate) were calculated using a Langmuir 1:1 binding model.
"Percent (%) stimulation of CDCP1 phosphorylation in DU-145 cells (Western blot, densitometry) [1] [%]",relative binding ratio [2],Kd [3] [nM],koff [3] [s⁻¹],kon [3] [M⁻¹ s⁻¹],t½ diss. [3] [min],Binder
96,0.46,3.77,0.00075,200000,15.4,"Humanized CUB4 Antibody No. 47 (antibody, human IgG1, V domains shown, Only variable domains are tied to the antibody; also called humanized anti-CDCP1 antibody 47; hHC4-H / hLC-K) VH: EVQLVESGGGLVQPGGSLRLSCAASGFTFNSYGMSWVRQAPGKGLEWVATISSGGSYKYYVDSVKGRFTISRDNAKNSLYLQMNSLRAEDTAVYYCARHPDYDGVWFAYWGQGTLVTVSS VL: EIVLTQSPATLSLSPGERATLSCRASSSVFYLHWYQQKPGQAPRLWIYDTSKLASGIPARFSGSGSGTDFTLTISSLEPEDFAVYYCQQWNSNPPTFGGGTKVEIK"
133,0.56,3.53,0.00088,250000,13.1,"Humanized CUB4 Antibody No. 80 (antibody, IgG1, V domains shown, Only variable domains are tied to the antibody; Human constant region, preferably IgG1; also called hHC4-H / hLC-M) VH: EVQLVESGGGLVQPGGSLRLSCAASGFTFNSYGMSWVRQAPGKGLEWVATISSGGSYKYYVDSVKGRFTISRDNAKNSLYLQMNSLRAEDTAVYYCARHPDYDGVWFAYWGQGTLVTVSS VL: EIVLTQSPATLSLSPGERATMSCGASSSVFYLHWYQQKPGLAPRLWIYDTSKLASGIPDRFSGSGSGTDFTLTISRLEPEDFAVYYCQQWNSNPPTFGGGTKVEIK"
72,0.47,8.3,0.0011,140000,10.3,"Humanized CUB4 Antibody No. 135 (antibody, IgG1, V domains shown, Human constant region, preferably IgG1; also called Antibody 135; hHC4-H / hLC-e) VH: EVQLVESGGGLVQPGGSLRLSCAASGFTFNSYGMSWVRQAPGKGLEWVATISSGGSYKYYVDSVKGRFTISRDNAKNSLYLQMNSLRAEDTAVYYCARHPDYDGVWFAYWGQGTLVTVSS VL: DIQMTQSPSSLSASVGDRVTITCSVSSSVFYVHWYQQKPGKAPKLLIYDTSKLASGVPSRFSGSGSGTDFTFTISSLQPEDIATYYCQQWNSNPPTFGGGTKVEIK"
